Source: patent CN114031685A (INST MILITARY MEDICINE ACADEMY MILITARY SCIENCES PLA, dated 2022)

Legend:
SARS-CoV-2 NTD蛋白 = molecular target: T1, SARS-CoV-2 NTD蛋白 (SARS-CoV-2, UniProt P0DTC2 14-303); experiment: ELISA, antigen coated at 2 μg/mL
T1 construct: domain: NTD

SARS-CoV-2 WT S2蛋白 = molecular target: T2, SARS-CoV-2 WT S2蛋白 (SARS-CoV-2, UniProt P0DTC2 686-1213); experiment: ELISA, antigen coated at 2 μg/mL
T2 construct: domain: S2

[1] = molecular target: 新冠病毒野生型 S蛋白 (on pseudovirus / live virus) (SARS-CoV-2, UniProt P0DTC2 14-1273); experiment: cell-based or functional assay

B1: 抗SARS-CoV-2全人源单克隆抗体ZW2G10 (antibody, V domains shown)
VH: EVQLVESGGGLVQPGRSLRLSCAASGFTFDDYAMHWVRQAPGKGLEWVSGITWNSGTIGYADSVKGRFIISRDNAKNSLHLQMNSLRVEDTALYYCAKDNSDYSGYYWELENYGMDVWGQGTTVTVSS
VL: QSVLTQPPSVSGAPGQRVTISCTGSSSNIGAGYDVHWYQQLPGTAPKLLIYDNNNRPSGVPDRFSGSKSGTSASLAITGLQAEDEADYYCQSFDSSLSGVVFGGGTRLTVLR
notes: also called 单抗ZW2G10
For B1, the binding result (SARS-CoV-2 NTD蛋白) was “no binding”, the binding result (SARS-CoV-2 WT S2蛋白) was “no binding” and the “假病毒中和 EC50” value [1] was 0.0142 µg/mL. The “真病毒中和 EC50 (Vero E6)” value [1] was 1.08 µg/mL.
